B1: RpADH8: Rana perezi ADH8, SEQ ID NO: 28 (protein, listed as Rama perezi)
chain: MCTAGKDITCKAAVAWEPHKPLSLETITVAPPKAHEVRIKILASGICGSDSSVLKEIIPSKFPVILGHEAVGVVESIGAGVTCVKPGDKVIPLFVPQCGSCRACKSSNSNFCEKNDMGAKTGLMADMTSRFTCRGKPIYNLVGTSTFTEYTVVADIAVAKIDPKAPLESCLIGCGFATGYGAAVNTAKVTPGSTCAVFGLGGVGFSAIVGCKAAGASRIIGVGTHKDKFPKAIELGATECLNPKDYDKPIYEVICEKTNGGVDYAVECAGRIETMMNALQSTYCGSGVTVVLGLASPNERLPLDPLLLLTGRSLKGSVFGGFKGEEVSRLVDDYMKKKINVNFLVSTKLTLDQINKAFELLSSGQGVRSIMIY
B2: VpADH: Vanderwaltozyma polyspora DSM 70294 ADH, SEQ ID NO: 38 (protein)
chain: MSYPEKFQGIGITNREDWKHPKKVTFEPKQFNDKDVDIKIEACGVCGSDVHCAASHWGPVAEKQVVGHEIIGRVLKVGPKCTTGIKVGDRVGVGAQAWSCLECSRCKSDNESYCPKSVWTYSIPYIDGYVSQGGYASHIRLHEHFAIPIPDKLSNELAAPLLCGGITVYSPLLRNGCGPGKKVGIVGIGGIGHMGLLFAKGMGAEVYAFSRTHSKEADAKKLGADHFIATLEDKDWTTKYFDTLDLLVICASSLTDINFDELTKIMKVNTKIISISAPAADEVLTLKPFGLIGVTIGNSAIGSRREIEHLLNFVAEKDIKPWVETLPVGEAGVNEAFERMDKGDVKYRFTLVDFDKEFGN
modifications: Vanderwaltozyma polyspora DSM 70294
B3: BtARD: Bos Taurus Aldehyde Reductase, SEQ ID NO: 27 (protein, listed as Bos taurus)
chain: MAASCILLHTGQKMPLIGLGTWKSDPGQVKAAIKYALSVGYRHIDCAAIYGNETEIGEALKENVGPGKLVPREELFVTSKLWNTKHHPEDVEPALRKTLADLQLEYLDLYLMHWPYAFERGDSPFPKNADGTIRYDSTHYKETWRALEALVAKGLVRALGLSNFNSRQIDDVLSVASVRPAVLQVECHPYLAQNELIAHCQARNLEVTAYSPLGSSDRAWRDPEEPVLLKEPVVLALAEKHGRSPAQILLRWQVQRKVSCIPKSVTPSRILENIQVFDFTFSPEEMKQLDALNKNLRFIVPMLTVDGKRVPRDAGHPLYPFNDPY
B4: EhADH1: Entamoeba histolytica ADH1, SEQ ID NO: 30 (protein, listed as Entamoeba histolytica)
chain: MKGLAMLGIGRIGWIEKKIPECGPLDALVRPLALAPCTSDTHTVWAGAIGDRHDMILGHEAVGQIVKVGSLVKRLKVGDKVIVPAITPDWGEEESQRGYPMHSGGMLGGWKFSNFKDGVFSEVFHVNEADANLALLPRDIKPEDAVMLSDMVTTGFHGAELANIKLGDTVCVIGIGPVGLMSVAGANHLGAGRIFAVGSRKHCCDIALEYGATDIINYKNGDIVEQILKATDGKGVDKVVIAGGDVHTFAQAVKMIKPGSDIGNVNYLGEGDNIDIPRSEWGVGMGHKHIHGGLTPGGRVRMEKLASLISTGKLDTSKLITHRFEGLEKVEDALMLMKNKPADLIKPVVRIHYDDEDTLH
B5: McADH: Mucor circinelloides ADH, SEQ ID NO: 39 (protein)
chain: MSEETFTAWACKSKSAPLEPMEMTFCHWDDDMVQMDVICCGVCGTDLHTVDEGWGPTEFPCVVGHEIIGNVTKVGKNVTRIKVGDRCGVGCQSASCGKCDFCKKGMENLCSTHAVWTFNDRYDNATKDKTYGGFAKKWRGNQDFVVHVPMDFSPEVAASFLCGGVTTYAPLKRYGVGKGSKVAVLGLGGLGHFGVQWAKAMGAEVVAFDVIPDKVDDAKKLGCDDYVLMQKEEQMEPHYNTFTHILATKIVNKCWDQYFKMLKNNGIFMLCDIPEVPLSGMSAFVMAGKQLTIAGTFIGSPSVIQECLDFAAKHNVRTWVNTFPMEKINEAFEFVRQAKPRYRAVVMN
modifications: Mucor circinelloides
B6: BiADH: ADH of Beijerinckia indica subsp. Indica ATCC 9039, SEQ ID NO: 31 (protein, listed as Beijerickia indica)
chain: MKALVYRGPGQKLVEERQKPELKEPGDAIVKVTKTTICGTDLHILKGDVATCKPGRVLGHEGVGVIESVGSGVTAFQPGDRVLISCISSCGKCSFCRRGMFSHCTTGGWILGNEIDGTQAEYVRVPHADTSLYRIPAGADEEALVMLSDILPTGFECGVLNGKVAPGSSVAIVGAGPVGLAALLTAQFYSPAEIIMIDLDDNRLGLAKQFGATRTVNSTGGNAAAEVKALTEGLGVDTAIEAVGIPATFELCQNIVAPGGTIANVGVHGSKVDLHLESLWSHNVTITTRLVDTATTPMLLKTVQSHKLDPSRLITHRFSLDQILDAYETFGQAASTQALKVIISMEA
B7: ScADH6: Saccharomyces cerevisiae ADH6 alcohol dehydrogenase, SEQ ID NO: 22 (protein, listed as Saccharomyces cerevisiae)
chain: MSYPEKFEGIAIQSHEDWKNPKKTKYDPKPFYDHDIDIKIEACGVCGSDIHCAAGHWGNMKMPLVVGHEIVGKVVKLGPKSNSGLKVGQRVGVGAQVFSCLECDRCKNDNEPYCTKFVTTYSQPYEDGYVSQGGYANYVRVHEHFVVPIPENIPSHLAAPLLCGGLTVYSPLVRNGCGPGKKVGIVGLGGIGSMGTLISKAMGAETYVISRSSRKREDAMKMGADHYIATLEEGDWGEKYFDTFDLIVVCASSLTDIDFNIMPKAMKVGGRIVSISIPEQHEMLSLKPYGLKAVSISYSALGSIKELNQLLKLVSEKDIKIWVETLPVGEAGVHEAFERMEKGDVRYRFTLVGYDKEFSD

How the values were obtained:
Format in all cases: biochemical
[1] = ADH activity assays of cell extracts and purified proteins; conditions: cell extracts or purified protein, initial experiments
Experimental: (§1) As a routine practice, the crude extracts and purified proteins were assayed for butanol oxidation activity, in order to ensure that the recombinant proteins were active throughout the purification process. […] Alcohol oxidation activities were carried out in 50 mM sodium phosphate buffer at pH 8.8 and aldehyde reduction reactions were assayed in 190 mM potassium phosphate buffer at pH 7.0. Depending on the nature of reaction being carried out, the enzyme and cofactor stocks were diluted in the reaction buffers at the respective pHs. Either buffer or cell extract prepared from the proprietary E. coli strain (with no ADH plasmid) was used as the negative control for assays with purified protein and cell-free extracts, respectively.
(§2) In initial experiments, there were insufficient levels of protein expression with EhADH1 and RpADH8. […] It is believed that one of skill in the art could further optimize expression and assay conditions for these candidates. Sufficient amounts of active protein could be purified with all other enzymes for which data are presented. […]

[2] = Cofactor specificity in isobutyraldehyde reduction reactions; conditions: for COFACTOR PREFERENCE: isobutyraldehyde reduction, NADH or NADPH as cofactor
Experimental: as §1, §2

[3] = Isobutanol oxidation assay; conditions: Table 8
Experimental: as §1
Kinetic constants of the ADH enzymes were calculated and compared to identify those candidate ADH enzymes with the most desirable properties for the conversion of isobutyraldehyde to isobutanol in the last step of the engineered pathway for isobutanol production. The assays for determining the kinetic constants were carried out using initial rates from the assays described above. […] The concentration of a given enzyme was such that it was conducive for the measurement of initial velocities over a 1-min time course. For each enzyme, Michaelis-Menten plots were generated with a broad range of substrate concentrations. Rough estimates of KM were obtained, based on which the assays were redesigned so as to use substrate concentrations in the range 0.5 to 10 times the KM value, to be able to obtain the appropriate kinetic constants. […] When calculating the KI for isobutanol, the same reactions were carried out in the presence of varying concentrations of isobutanol (generally 0-535 mM) in the reaction (see FIG. 7, for example). Reactions with isobutanol substrate were performed at 30° C. in 50 mM Sodium phosphate buffer, pH 8.8, containing 7.5 mM NAD. The Enzyme kinetics module (Version 1.3) of SigmaPlot 11 (Systat Software, Inc.) was used to fit data to Michaelis-Menten equations and calculate the kinetic constants. The kcat/KM is derived from the individual numbers of kcat and KM and not an experimentally determined value. The ratios of the KM, KI, and kcat/KM for each candidate enzyme as compared to the same parameter for SadB are given in Table 9.

[4] = Semi-physiological time-course assay with and without 321 mM isobutanol
From the text: The ideal way to characterize and compare various ADH candidates would be to calculate and compare the full set of kinetic constants, i.e., kcat values for aldehyde reduction and alcohol oxidation, KM values for isobutyraldehyde, isobutanol, NAD(P) and NAD(P)H, and KI values for isobutyraldehyde and isobutanol. A detailed characterization for numerous candidates would require considerable expenditure of time, effort and money. Thus, a qualitative assay was developed to allow for quick and efficient comparison of several candidates. A semi-physiological assay was designed to compare the performance of various enzymes. The assays entail the initiation of all reactions with a constant amount of each enzyme. […] Each reaction's time course was followed for 10 min by measuring the decrease in absorbance at 340 nm, as the reaction proceeds towards equilibrium. An enzyme with a high kcat, would drive the reaction towards equilibrium faster than an enzyme with a lower kcat. A parallel assay was also carried out under identical conditions, but with the inclusion of 321 mM isobutanol (24 g/L) in the reaction. An enzyme that is relatively uninhibited by this concentration of isobutanol would have a time course that closely mimics the time course in the absence of isobutanol.

| Molecule | ADH activity [1] | COFACTOR PREFERENCE [2] | also measured |
| --- | --- | --- | --- |
| B1 | failed to detect ADH activity | – | – |
| B2 | no detectable activity | – | – |
| B3 | no detectable activity | – | – |
| B4 | failed to detect ADH activity | – | – |
| B5 | – | NADH | Other enzymatic properties and cofactor preference ([2]; Table 8): NADH specific; conversion of isobutanol to isobutyraldehyde [3]: No measureable |
| B6 | – | NADH | kcat for the isobutyraldehyde reduction reaction (inferred from time courses, FIG. 1) ([4]; 1 ug enzyme, 1 mM isobutyraldehyde, 200 μM NADH, 10 min): likely to have the highest kcat |
| B7 | – | NADPH | Other enzymatic properties and cofactor preference ([2]; Table 7): NADPH specific; inhibition by isobutanol (inferred from time courses, FIG. 1) ([4]; 321 mM isobutanol (24 g/L)): likely to be the least inhibited |
